PMC3817407

Tests used:
[1] = molecular target: T1, ECF02_915
T1 chain: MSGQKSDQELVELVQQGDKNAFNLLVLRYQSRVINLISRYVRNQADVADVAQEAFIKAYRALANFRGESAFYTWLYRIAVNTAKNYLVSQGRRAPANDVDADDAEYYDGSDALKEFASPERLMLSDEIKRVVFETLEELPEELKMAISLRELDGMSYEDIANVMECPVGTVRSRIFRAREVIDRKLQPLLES

[2] = molecular target: T2, ECF03_1244
T2 chain: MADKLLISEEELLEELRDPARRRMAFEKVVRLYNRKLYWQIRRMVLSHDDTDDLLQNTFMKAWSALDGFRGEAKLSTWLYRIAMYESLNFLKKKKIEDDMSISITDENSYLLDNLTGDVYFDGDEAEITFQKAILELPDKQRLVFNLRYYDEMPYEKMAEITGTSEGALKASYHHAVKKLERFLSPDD

[3] = molecular target: T3, ECF11_3726
T3 chain: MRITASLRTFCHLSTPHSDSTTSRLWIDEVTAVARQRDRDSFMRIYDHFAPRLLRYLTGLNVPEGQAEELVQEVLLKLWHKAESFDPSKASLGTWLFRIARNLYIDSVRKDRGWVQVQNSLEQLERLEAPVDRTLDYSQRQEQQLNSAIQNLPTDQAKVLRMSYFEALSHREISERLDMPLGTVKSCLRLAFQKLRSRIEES

[4] = molecular target: T4, ECF14_1324
T4 chain: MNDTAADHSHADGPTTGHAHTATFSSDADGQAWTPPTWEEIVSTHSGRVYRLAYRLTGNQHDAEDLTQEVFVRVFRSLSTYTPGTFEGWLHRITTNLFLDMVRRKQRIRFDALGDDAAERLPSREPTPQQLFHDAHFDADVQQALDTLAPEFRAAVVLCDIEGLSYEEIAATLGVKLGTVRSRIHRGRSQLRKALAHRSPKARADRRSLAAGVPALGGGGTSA

[5] = molecular target: T5, ECF14_3200
T5 chain: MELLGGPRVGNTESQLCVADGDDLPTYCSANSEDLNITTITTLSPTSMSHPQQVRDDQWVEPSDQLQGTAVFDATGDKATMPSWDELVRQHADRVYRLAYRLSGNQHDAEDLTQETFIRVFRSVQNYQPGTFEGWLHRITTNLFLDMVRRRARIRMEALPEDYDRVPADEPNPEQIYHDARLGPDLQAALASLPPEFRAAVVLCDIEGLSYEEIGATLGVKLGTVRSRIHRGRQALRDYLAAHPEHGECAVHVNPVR

[6] = molecular target: T6, ECF15_524
T6 chain: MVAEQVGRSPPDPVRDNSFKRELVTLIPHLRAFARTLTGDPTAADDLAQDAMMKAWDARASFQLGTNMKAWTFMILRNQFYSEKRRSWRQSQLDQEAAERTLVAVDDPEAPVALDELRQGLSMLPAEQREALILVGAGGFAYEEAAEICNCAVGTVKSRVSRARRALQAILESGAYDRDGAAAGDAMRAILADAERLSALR

[7] = molecular target: T7, ECF20_992
T7 chain: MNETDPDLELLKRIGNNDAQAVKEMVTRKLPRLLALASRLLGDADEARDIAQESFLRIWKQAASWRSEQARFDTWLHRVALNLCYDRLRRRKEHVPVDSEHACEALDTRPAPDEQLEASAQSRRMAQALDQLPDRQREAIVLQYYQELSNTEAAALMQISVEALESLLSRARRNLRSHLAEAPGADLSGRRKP

[8] = molecular target: T8, ECF25_1645
T8 chain: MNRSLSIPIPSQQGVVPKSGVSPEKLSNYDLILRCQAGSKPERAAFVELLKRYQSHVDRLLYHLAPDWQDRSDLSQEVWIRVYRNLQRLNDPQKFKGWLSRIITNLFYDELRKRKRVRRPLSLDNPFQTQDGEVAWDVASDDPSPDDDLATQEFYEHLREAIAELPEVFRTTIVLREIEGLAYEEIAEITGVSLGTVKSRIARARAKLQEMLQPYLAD

[9] = molecular target: T9, ECF30_35
T9 chain: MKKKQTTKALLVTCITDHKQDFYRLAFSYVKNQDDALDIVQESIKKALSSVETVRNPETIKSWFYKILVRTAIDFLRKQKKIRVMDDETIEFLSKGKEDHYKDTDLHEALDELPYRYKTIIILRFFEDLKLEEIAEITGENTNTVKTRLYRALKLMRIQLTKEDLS

[10] = molecular target: T10, ECF31_34
T10 chain: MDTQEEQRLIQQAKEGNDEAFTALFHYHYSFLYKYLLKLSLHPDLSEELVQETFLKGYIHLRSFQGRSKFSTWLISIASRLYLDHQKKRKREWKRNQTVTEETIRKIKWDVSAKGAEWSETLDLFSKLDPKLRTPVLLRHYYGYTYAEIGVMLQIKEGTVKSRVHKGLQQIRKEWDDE

[11] = molecular target: T11, ECF33_423
T11 chain: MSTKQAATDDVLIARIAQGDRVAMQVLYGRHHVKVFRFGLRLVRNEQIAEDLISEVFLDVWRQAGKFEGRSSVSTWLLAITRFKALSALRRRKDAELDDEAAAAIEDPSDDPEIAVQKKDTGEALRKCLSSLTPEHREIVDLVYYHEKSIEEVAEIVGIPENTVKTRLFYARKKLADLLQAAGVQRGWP

[12] = molecular target: T12, ECF34_1384
T12 chain: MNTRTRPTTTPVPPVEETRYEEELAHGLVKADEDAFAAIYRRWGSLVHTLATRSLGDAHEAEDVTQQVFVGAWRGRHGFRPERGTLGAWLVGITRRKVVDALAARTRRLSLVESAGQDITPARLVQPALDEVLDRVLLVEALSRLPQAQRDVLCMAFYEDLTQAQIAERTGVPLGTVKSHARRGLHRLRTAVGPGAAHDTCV

[13] = molecular target: T13, ECF37_2513
T13 chain: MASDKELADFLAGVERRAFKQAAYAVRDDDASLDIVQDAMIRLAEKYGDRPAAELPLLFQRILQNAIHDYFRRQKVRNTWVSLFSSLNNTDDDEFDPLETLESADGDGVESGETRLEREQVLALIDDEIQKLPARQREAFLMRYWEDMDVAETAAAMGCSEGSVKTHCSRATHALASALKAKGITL

[14] = molecular target: T14, ECF38_1322
T14 chain: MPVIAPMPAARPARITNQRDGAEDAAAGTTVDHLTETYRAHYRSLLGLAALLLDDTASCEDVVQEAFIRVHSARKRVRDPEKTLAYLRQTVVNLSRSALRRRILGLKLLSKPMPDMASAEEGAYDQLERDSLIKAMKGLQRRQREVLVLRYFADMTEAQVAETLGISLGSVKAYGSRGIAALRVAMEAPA

B1: AS27_1331 (protein)
chain: MSAADKDPDKHSADADPPLTVELLADLQAGLLDDATAARIRSRVRSDPQAQQILRALNRVRRDVAAMGADPAWGPAARPAVVDSISAALRSARPNSSPGAAHAARPHVHPVRMIAGAAGLCAVATAIGVGAVVDAPPPAPSAPTTAQHITVSKPAPVIPLSRPQVLDLLHHTPDYGPPGGPLGDPSRRTSCLSGLGYPASTPVLGAQPIDIDARPAVLLVIPADTPDKLAVFAVAPHCSAADTGLLASTVVPRA
fold repression [1]: 2.72
fold repression [2]: 4.29
fold repression [3]: 5.02
fold repression [4]: 5.93
fold repression [5]: 2.68
fold repression [6]: 3.38
fold repression [7]: 6.81
fold repression [8]: 3.12
fold repression [9]: 3.98
fold repression [10]: 5.7
fold repression [11]: 5.1
fold repression [12]: 2.35
fold repression [13]: 2.75
fold repression [14]: 3.98

B2: AS22_1147 (protein)
chain: MELDDIAVAWRSLEQRLDQHAALAGQVLGDLRSHAARAHLRPLWLSQSAQLLCAIALSGLVAHSWLAFPEQAAAIVGGVLLQIWCVALAASAARQLWLLSQLDFARPLLQTQRALAQLRRWRTRVAPWLGVAFWVLWVAVADAAWRALTGRSLPYAWLLCNLLVGVLGGIGTWLGYRRLQRSGHPWLERLDTVHAGRSVARTETLLEQIARFQRE
fold repression [1]: 3.59
fold repression [2]: 3.22
fold repression [3]: 3.72
fold repression [4]: 4.18
fold repression [5]: 5.04
fold repression [6]: 2.65
fold repression [7]: 2.35
fold repression [8]: 2.27
fold repression [9]: 2.04
fold repression [10]: 2.31
fold repression [11]: 1.76
fold repression [12]: 2.09
fold repression [13]: 3.66
fold repression [14]: 1.99

B3: AS22_4450 (protein)
chain: MELDDMKHAWQTLEQRLDQQAAQTGQLLGVVHEETVRSSLRPLWVAQTAQLLCALALAIVSARSWIPHTDQPVAVIGGVLLQAWCMALAISAMVQLQLLTQFNVAGPLLRTQHALARLRRWRTRVAPWLGVAFWVLWIAVADALWRALTGQTLPTDWLVLNLLVGVAGGIGTWLGFRRLQRAQHPWLERIDRAHAGTGVIRAERMLEEIARFQRD
fold repression [1]: 2.12
fold repression [2]: 1.75
fold repression [3]: 1.93
fold repression [4]: 2.85
fold repression [5]: 1.94
fold repression [6]: 1.53
fold repression [7]: 1.54
fold repression [8]: 1.42
fold repression [9]: 1.54
fold repression [10]: 1.48
fold repression [11]: 1.24
fold repression [12]: 1.66
fold repression [13]: 1.51
fold repression [14]: 1.78

B4: AS25_1643_cl43 (protein)
chain: MTTDSNFNDPCRRQFSRDLPQKMARHTNEATGAMDMVKRDRFELLSAYLGGEVTAAERRQVEDWPANDVAVQRLYSRLLKLRQGIRTMPIPTAQQSPETTAEQVFAKVNRRSRLAWKLGGAAVAACVIGAVTNWLPGRQTGIPQLAQQPQEQPTQAVTTPDALPMIALNNPVIEIPKAAVASPTKFIQPQPQLGEIPPDIN
fold repression [1]: 6.67
fold repression [2]: 1.06
fold repression [3]: 4.29
fold repression [4]: 1.77
fold repression [5]: 5.41
fold repression [6]: 1.18
fold repression [7]: 1.99
fold repression [8]: 7.28
fold repression [9]: 0.929
fold repression [10]: 1.58
fold repression [11]: 1.23
fold repression [12]: 2.43
fold repression [13]: 1.9
fold repression [14]: 0.931

B5: AS25_1645 (protein)
chain: MNESFSQRQTDGDRRRGGDLEMKKNHTSHQHHTDSETPMGHNFEQFQRLSAYFDGEATPAERKEIQHLLDTDPQVKQQYQQLRQLKQALQLLPIPTSISAQYLGQRVLARLRRSQLRTLSLWGSGAIAALFVAGVMGQMPRLNFDRFAKNDPDQQPTAALVETSPQGEEALVVALNRPVLQIPKLATTESP
fold repression [1]: 6.91
fold repression [2]: 4.7
fold repression [3]: 13.1
fold repression [4]: 18.7
fold repression [5]: 14.2
fold repression [6]: 6.73
fold repression [7]: 5.73
fold repression [8]: 33.7
fold repression [9]: 3.43
fold repression [10]: 5.66
fold repression [11]: 4.92
fold repression [12]: 7.62
fold repression [13]: 7.52
fold repression [14]: 3.98
